In one experiment the target is T1, Notch1 on OLN-93 cells (rat, UniProt Q07008 19-2531).
T1 construct: whole, on cells; OLN-93 cells carry both Notch1 and Notch2; also called OLN cells
Put plainly: OLN-93 cell adhesion to control substrate. Here is the method:
(§1) This was carried out as previously described (Xiao et al, 1996). Briefly, 35 mm tissue culture petri dishes (Becton Dickinson) were coated with methanol solubilized nitrocellulose (Lagenaur and Lemon, 1987) and air-dried under a sterile hood. […] Subsequently, the dishes were washed three times with calcium- and magnesium-free Hank's balanced salt solution (CMF-HBSS) and blocked overnight with 2% heat-inactivated fatty acid-free BSA (Sigma) in CMF-HBSS (this blocking step is skipped in the repulsion test). […] After 0.5 hour (in the adhesion test) or 12 hours (in the repulsion test), the dishes were gently washed three times with CMF-HBSS and the cells were fixed with 2.5% glutaldehyde in CMF-HBSS. […] Cells adhering to the various spots were photographed and counted. The results were analyzed by Student's t test with p<0.05 and p<0.01 being considered significant or highly significant difference, respectively.

A further experiment addresses T2, Notch2 on OLN-93 cells (rat, UniProt Q9QW30 26-2471).
T2 construct: whole, on cells; also called OLN cells
Put plainly: OLN-93 cell adhesion to control substrate. The procedure:
as §1

T2 sequence (Q9QW30 26-2471): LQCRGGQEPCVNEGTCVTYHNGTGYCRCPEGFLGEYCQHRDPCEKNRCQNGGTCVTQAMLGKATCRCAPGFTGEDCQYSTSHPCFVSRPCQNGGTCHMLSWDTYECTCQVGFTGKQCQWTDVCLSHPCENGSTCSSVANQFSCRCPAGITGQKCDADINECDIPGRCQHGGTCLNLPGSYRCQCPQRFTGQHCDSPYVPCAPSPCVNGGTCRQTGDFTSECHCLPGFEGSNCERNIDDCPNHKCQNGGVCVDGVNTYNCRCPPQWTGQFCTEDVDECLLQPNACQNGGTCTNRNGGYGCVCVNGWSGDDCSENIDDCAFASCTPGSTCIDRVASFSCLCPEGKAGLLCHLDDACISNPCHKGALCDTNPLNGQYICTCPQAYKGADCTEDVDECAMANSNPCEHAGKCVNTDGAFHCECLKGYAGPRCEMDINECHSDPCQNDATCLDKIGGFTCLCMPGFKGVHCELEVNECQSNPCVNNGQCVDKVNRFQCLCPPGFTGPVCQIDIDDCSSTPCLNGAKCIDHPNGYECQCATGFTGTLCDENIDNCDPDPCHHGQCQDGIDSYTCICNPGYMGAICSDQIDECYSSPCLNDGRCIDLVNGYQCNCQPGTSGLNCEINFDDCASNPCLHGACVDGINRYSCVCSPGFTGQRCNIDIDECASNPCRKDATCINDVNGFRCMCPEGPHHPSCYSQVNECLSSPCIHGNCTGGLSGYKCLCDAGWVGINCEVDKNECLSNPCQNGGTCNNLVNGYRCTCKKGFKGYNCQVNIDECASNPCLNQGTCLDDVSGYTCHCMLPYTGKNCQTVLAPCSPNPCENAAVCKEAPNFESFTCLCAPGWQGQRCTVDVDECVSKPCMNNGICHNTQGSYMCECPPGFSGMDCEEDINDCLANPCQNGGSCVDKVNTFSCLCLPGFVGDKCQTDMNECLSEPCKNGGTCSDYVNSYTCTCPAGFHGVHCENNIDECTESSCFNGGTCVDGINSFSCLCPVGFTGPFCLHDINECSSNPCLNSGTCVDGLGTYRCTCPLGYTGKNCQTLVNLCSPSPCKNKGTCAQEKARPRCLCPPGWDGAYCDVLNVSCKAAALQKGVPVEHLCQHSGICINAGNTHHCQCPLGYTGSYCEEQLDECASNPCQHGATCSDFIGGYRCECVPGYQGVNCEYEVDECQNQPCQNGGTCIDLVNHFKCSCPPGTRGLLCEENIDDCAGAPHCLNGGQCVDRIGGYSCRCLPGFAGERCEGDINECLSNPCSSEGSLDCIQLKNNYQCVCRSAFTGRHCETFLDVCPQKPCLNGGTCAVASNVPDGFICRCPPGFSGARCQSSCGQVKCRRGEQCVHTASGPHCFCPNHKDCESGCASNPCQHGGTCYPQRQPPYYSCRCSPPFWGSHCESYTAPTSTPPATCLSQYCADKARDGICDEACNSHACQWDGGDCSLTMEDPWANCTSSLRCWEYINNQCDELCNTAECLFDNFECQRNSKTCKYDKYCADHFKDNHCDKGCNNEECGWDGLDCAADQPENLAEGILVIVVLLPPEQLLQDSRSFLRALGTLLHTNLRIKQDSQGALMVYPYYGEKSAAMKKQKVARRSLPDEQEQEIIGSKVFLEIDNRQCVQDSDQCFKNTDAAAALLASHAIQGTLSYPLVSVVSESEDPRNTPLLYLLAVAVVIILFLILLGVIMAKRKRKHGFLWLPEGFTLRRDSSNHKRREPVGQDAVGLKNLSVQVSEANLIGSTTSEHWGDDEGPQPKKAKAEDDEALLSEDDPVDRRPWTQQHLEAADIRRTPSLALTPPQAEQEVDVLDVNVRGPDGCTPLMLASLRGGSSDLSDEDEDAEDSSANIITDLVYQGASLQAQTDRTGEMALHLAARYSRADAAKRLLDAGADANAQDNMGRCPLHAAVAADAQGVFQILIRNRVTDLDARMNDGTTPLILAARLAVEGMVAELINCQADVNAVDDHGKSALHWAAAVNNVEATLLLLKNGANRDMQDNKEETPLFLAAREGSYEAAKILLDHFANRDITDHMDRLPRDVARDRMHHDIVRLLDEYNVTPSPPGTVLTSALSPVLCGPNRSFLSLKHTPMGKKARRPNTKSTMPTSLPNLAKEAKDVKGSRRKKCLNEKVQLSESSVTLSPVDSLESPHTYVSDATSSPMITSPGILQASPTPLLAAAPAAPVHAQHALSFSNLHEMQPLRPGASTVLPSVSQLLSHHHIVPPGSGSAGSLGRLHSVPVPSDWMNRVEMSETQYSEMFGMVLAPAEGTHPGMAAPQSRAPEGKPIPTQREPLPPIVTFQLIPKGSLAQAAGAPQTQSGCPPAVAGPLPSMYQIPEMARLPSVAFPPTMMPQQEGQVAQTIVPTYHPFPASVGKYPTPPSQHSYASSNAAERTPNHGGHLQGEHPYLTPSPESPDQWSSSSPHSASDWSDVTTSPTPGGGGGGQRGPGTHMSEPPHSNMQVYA
T1 sequence (Q07008 19-2531): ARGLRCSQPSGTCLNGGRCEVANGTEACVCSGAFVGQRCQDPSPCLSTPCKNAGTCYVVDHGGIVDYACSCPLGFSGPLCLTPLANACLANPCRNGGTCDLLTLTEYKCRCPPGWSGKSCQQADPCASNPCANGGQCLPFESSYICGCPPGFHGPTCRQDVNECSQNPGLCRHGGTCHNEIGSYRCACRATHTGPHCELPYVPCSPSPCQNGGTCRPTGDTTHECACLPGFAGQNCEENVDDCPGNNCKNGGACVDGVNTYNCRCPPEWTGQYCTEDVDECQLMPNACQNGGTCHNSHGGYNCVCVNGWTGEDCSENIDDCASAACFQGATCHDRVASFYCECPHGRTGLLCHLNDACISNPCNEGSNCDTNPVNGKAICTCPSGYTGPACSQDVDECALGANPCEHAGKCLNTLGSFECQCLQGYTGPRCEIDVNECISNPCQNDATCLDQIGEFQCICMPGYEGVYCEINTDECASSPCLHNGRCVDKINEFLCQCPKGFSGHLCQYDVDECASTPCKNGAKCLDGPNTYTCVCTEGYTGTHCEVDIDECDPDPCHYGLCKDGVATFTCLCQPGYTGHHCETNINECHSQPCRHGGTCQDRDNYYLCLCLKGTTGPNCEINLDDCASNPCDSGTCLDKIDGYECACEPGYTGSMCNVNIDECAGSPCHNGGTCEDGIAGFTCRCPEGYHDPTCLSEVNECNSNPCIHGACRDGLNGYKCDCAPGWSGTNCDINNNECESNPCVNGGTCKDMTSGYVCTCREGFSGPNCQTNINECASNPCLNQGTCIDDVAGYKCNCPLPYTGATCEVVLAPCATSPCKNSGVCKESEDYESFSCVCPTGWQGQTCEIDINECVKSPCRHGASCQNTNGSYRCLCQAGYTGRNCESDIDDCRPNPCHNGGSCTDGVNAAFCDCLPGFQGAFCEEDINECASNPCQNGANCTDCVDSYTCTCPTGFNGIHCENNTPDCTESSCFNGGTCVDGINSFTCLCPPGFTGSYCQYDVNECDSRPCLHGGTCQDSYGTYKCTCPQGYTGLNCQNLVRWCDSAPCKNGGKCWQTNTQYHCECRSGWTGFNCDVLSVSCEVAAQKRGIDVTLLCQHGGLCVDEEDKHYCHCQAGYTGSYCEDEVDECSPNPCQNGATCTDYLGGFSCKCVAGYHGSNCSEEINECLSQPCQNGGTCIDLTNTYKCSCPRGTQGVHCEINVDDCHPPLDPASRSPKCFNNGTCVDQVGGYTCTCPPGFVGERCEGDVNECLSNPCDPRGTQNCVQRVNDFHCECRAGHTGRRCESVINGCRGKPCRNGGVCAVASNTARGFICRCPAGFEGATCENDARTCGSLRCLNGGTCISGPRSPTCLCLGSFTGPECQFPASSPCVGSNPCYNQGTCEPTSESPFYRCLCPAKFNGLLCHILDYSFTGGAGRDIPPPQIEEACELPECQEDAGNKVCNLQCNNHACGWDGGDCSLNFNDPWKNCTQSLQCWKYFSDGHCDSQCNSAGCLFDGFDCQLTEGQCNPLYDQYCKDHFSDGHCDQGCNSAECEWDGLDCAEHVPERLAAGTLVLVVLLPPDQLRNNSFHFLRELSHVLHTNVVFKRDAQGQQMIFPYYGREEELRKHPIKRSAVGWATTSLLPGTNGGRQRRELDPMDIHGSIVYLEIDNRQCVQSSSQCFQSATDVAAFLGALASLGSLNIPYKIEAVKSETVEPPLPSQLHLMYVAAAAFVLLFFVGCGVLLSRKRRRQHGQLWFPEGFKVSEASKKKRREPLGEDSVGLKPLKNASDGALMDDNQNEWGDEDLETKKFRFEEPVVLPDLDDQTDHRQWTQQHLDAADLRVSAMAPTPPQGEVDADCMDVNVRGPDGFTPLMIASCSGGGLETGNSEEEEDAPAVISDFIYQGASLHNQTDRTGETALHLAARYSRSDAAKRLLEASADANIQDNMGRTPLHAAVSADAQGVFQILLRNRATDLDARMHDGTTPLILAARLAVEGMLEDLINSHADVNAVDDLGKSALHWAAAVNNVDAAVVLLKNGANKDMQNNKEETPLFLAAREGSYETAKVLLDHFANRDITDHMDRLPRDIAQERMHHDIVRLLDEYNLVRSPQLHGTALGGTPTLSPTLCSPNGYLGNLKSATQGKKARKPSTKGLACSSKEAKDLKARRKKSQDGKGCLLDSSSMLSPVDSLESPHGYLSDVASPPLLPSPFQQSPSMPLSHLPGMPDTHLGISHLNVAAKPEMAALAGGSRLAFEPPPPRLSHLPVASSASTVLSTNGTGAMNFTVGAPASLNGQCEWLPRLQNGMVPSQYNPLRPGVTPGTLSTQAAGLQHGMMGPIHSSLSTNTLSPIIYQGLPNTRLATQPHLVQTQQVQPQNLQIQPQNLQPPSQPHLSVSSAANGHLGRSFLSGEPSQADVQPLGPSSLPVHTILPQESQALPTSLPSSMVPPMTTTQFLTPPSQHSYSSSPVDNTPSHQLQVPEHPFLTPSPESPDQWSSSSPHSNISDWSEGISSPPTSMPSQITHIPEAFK

B1: CHL1-Fc (Fc fusion, UniProt P70232 26-1083, looked up)
chain: EIPLSVQQVPTIVKQSYVQVAFPFDEYFQIECEAKGNPEPIFSWTKDDKPFDLSDPRIIAANNSGTFKIPNEGHISHFQGKYRCFASNRLGTAVSEEIEFIVPGVPKFPKEKIEPIDVEEGDSIVLPCNPPKGLPPLHIYWMNIELEHIEQDERVYMSQRGDLYFANVEENDSRNDYCCFAAFPKLRTIVQKMPMKLTVNSSNSIKQRKPKLLLPPAQMGSLSAKTVLKGDTLLLECFAEGLPTPHIQWSKPGSELPEGRATIEVHEKTLKIENISYQDRGNYRCTANNLLGKASHDFHVTVEEPPRWKKKPQSAVYSTGSSGILLCEAEGEPQPTIKWRLNGLPIEKHPFPGDFMFPREISFTNLLPNHTGVYQCEASNIHGTILANANIDVIDVIPLIKTKNEENYATVVGYSAFLHCEYFASPKATVVWEVADETHPLEGDRYHTHENGTLEIYRTTEEDAGSYSCWVDNAMGKAVITANLDIRNATKLRVSPKNPRIPKSHVLELYCESQCDSHLKHSLKLSWSKDGEAFEMNGTEDGRIVIDGAYLTISNITAEDQGVYSCSAQTSLDSTSEKTQVTVLGVPDPPGNLHLSERQNRSVRLSWEAGDDHNSKISEYIVEFEGNREEPGKWEELTRVQGEETDVVLSLAPYVRYQFRVTAVNEVGRSHASLPSDHHETPPAAPDKNPQNIRVQASQPKEMIIKWEPLKSMEQNGPGLEYKVSWKPQGAPEEWEEEIVTNHTLRVMTPTVYAPYDVKVQAINQLGSSPDPQPVTLYSGEDYPSTAPVIQRVDVMNSTLVKVTWSSIPKETVHGLLRGYQINWWKTKSLLDGRTHPKEVNILRFSGQRNSGMVPSLDPFSEFHLTVLAYNSKGAGPESEPYIFQTPEGVPEQPSFLKVIKVDKDTATLSWGLPKKLNGNLTGYLLQYQIINDTYELGELNEINVTTPSKSSWHLSNLNSTTKYKFYLRACTSRGCGKPISEEGATLGEGSKGIRKITEGVNVTQKIHPVEVLVPGAEHIVHLMTKNWGDNDSIFQDVIETRGREYAGLYDDISTQGW
notes: Control substrate; also called CHL-Fc; not shown: human IgG Fc
In the case of B1, the binding result with Notch1 on OLN-93 cells and with Notch2 on OLN-93 cells was “no binding (tested: 2.5 µl of 12 µM CHL1-Fc spotted)” each time.

For the origin of these results see patent publication US8273855 (JIANGSU NOVAVAC BIO TEC, dated 2012).
